Test results: publication PMC12119765, “Unveiling the potential of copper-61 vs. gallium-68 for SSTR PET imaging” (European Journal of Nuclear Medicine and Molecular Imaging, 2025)

Assays:
[1] = test system: AR42J subcutaneous tumor-bearing mice; conditions: 1 h p.i., i.v.
Procedure: (§1) Animal studies were approved by the Animal Welfare Committee of the Institute for Nuclear Sciences Applied to Health (ICNAS) of University of Coimbra (ORBEA 05-2024) and by the Portuguese National Authority for Animal Health (DGAV). Athymic male Swiss Foxn1nu mice (28–32 g, 6–8 weeks old) were purchased from ICNAS and housed under pathogen free conditions in individually ventilated cages. To establish the tumor model, animals were injected subcutaneously in the left flank with 3 × 10^6 AR42J cells resuspended in 100 µL of PBS 50 with 50% Matrigel. Tumor growth was monitored twice weekly by caliper measurements and were allowed to grow to a maximum volume of 1 cm^3.
A set of fiducial markers was used for an optimal PET/MRI co-registration. The breathing rate and body temperature of the animals were monitored throughout the imaging procedures (SA Instruments SA, USA). After the PET scan, a whole-body MRI was performed on a BioSpec 9.4T MRI scanner with a body volume resonator (transmitter/receiver) with the animal in the same position for anatomical co-localization. […] Quantitative image processing was performed using PMOD (PMOD, v 3.6; PMOD Technologies, Zürich, Switzerland, RRID: SCR_016547). […] Blood samples were collected at 1, 2, and 4 h after injection for measurement of whole-blood radioactivity concentrations.

tumor = test system: tumor; design: method as in PMID 32297029; conditions: cited from earlier work
[2] = test system: SSTR-expressing AR42J cells; assay: Cell uptake and internalization studies in SSTR-expressing AR42J cells; type: cell-based, rat; conditions: for Intracellular (internalized) activity: 2 h incubation time, 0.5 nM, Fig. 2C, percentage per million cells; for Maximum total uptake into AR42J: at 2 h, 0.5 nM radiolabeled peptide; for Membrane-bound fraction over time: glycine buffer wash fraction, 15 min to 2 h
Procedure: The AR42J cell line, a natural SSTR-overexpressing epithelial-like cell isolated from a rat pancreatic tumor, was purchased from American Type Culture Collection (ATCC, CRL-1492) (Manassas, VA, USA) and cultured in F-12 K medium (ATCC, Catalog No. 30-2004) supplemented with 20% heat-inactivated fetal bovine serum (FBS, Gibco) and 1% PenStrep. The cells were maintained under standard adherent conditions in a humidified incubator with 5% CO2 at 37° C.
Cells were incubated at 37 °C for a maximum of 2–4 h (15 min, 30 min, 1 h, 2 h, and 4 h) for ^68Ga-based and ^61Cu-based radiopharmaceuticals, respectively. At the indicated time points, the cellular uptake was terminated by washing the cells with PBS. Cell surface-bound radioactivity was removed by an acid wash (50 mM glycine, pH 2.8) at RT for 5 min. The pH was neutralized with PBS, and the cells were lysed by incubation with 1 M NaOH at 37 °C for 5 min to determine internalized radioactivity. Each experiment was performed in triplicate. […] For blocking studies, parallel experiments were performed as described above, but cells were incubated in the presence of DOTA-TATE precursor (0.5 µM) at 37 °C for the same time points.

in vivo [3] = conditions: male, athymic Swiss Foxn1nu, mouse, intravenous, total radioactivity; for tissue uptake at 1 h: AR42J tumor
Procedure: as §1
(§2) Mice were sacrificed at 1.5–4.5 h p.i. and perfused with PBS. Organs including brain, heart, lung, liver, kidney, spleen, stomach, intestine, bone, and muscle were collected and weighted. Blood samples were collected via tail vein bleeding at different time points to monitor the residence time of the radiopharmaceuticals in the circulation. After sacrifice, urine was directly collected from the bladder for radio-HPLC analysis of radiopharmaceutical integrity. The radioactivity of each sample was measured using an automated CRC-55tW gamma well counter (Mirion Technologies - Atlanta, GA, USA). Results were expressed as the percentage of injected dose per gram (ID/g) of tissue and presented as the mean ± SEM (N = 3 per radiopharmaceutical).

healthy control mice = assay: PET/MR imaging in healthy control mice; type: in vivo
Procedure: (§3) A set of fiducial markers was used for an optimal PET/MRI co-registration. The breathing rate and body temperature of the animals were monitored throughout the imaging procedures (SA Instruments SA, USA). After the PET scan, a whole-body MRI was performed on a BioSpec 9.4T MRI scanner with a body volume resonator (transmitter/receiver) with the animal in the same position for anatomical co-localization. Anatomical reference images were obtained from axial and coronal multi-slice scans. A set of fiducial markers were used on the animal bed for an optimal PET/MRI co-registration. Quantitative image processing was performed using PMOD (PMOD, v 3.6; PMOD Technologies, Zürich, Switzerland, RRID: SCR_016547). FUSION Tools were used to deliniate volumes of interest (VOIs) on the PET images co-registered with the anatomical MRI. Blood samples were collected at 1, 2, and 4 h after injection for measurement of whole-blood radioactivity concentrations.

in vivo [4] = conditions: male, athymic Swiss Foxn1nu, mouse, whole blood, total radioactivity
Procedure: as §3, §2

[5] = urine sample collected 4 h after i.v. injection
Procedure: as §2

[6] = In vitro stability in the final formulation (10% EtOH) by radioHPLC; type: physicochemical
Procedure: The HPLC method used is detailed in Table 1.
The stability of [^61Cu]Cu-NOTA-TATE was tested in the final formulation up to 6 h after EOS. At different time points (T0, T0 + 2, T0 + 4 and T0 + 6 h) aliquots were taken and measured using the previously described radioHPLC method.

AR42J tumor-bearing mice = assay: in vivo; conditions: AR42J tumor, 4 h p.i., mean ± SEM, N = 3
Procedure: as §1, §2

## C[C@@H](O)[C@H](NC(=O)[C@@H]1CSSC[C@H](NC(=O)[C@@H](Cc2ccccc2)NC(=O)CN2CCN(CC(=O)O)CCN(CC(=O)O)CCN(CC(=O)O)CC2)C(=O)N[C@@H](Cc2ccc(O)cc2)C(=O)N[C@H](Cc2c[nH]c3ccccc23)C(=O)N[C@@H](CCCCN)C(=O)N[C@@H]([C@@H](C)O)C(=O)N1)C(=O)O [[^68Ga]Ga-DOTA-TATE, metal not drawn, reference compound]
[1]
  Biodistribution profile in PET/MR images: significant tumor and bladder accumulation
tumor
  Tumor uptake: 3.14 ± 2.07%
[2]
  Intracellular (internalized) activity: 51.2%
  Maximum total uptake into AR42J: 62.5 ± 1.9 %/10^6 cells
  Membrane-bound fraction over time: ≤ 10%
In vivo [3]
  tissue uptake at 1 h: 8.73 ± 0.45 %ID/g

## C[C@@H](O)[C@H](NC(=O)[C@@H]1CSSC[C@H](NC(=O)[C@@H](Cc2ccccc2)NC(=O)CN2CCN(CC(=O)O)CCN(CC(=O)O)CC2)C(=O)N[C@@H](Cc2ccc(O)cc2)C(=O)N[C@H](Cc2c[nH]c3ccccc23)C(=O)N[C@@H](CCCCN)C(=O)N[C@@H]([C@@H](C)O)C(=O)N1)C(=O)O [[^61Cu]Cu-NOTA-TATE, metal not drawn]
Healthy control mice; healthy control mice, 1 h and 4 h p.i.
  Biodistribution profile in PET/MR images: rapid clearance with marked accumulation in the kidneys and bladder
In vivo [4]; intravenous
  tissue uptake at 2 h: 0.13 ± 0.02 %ID/g
  tissue uptake at 4 h: 0.09 ± 0.004 %ID/g
In vivo [4]; iv
  tissue uptake at 1 h: 0.19 ± 0.003 %ID/g
[5]
  Intact radiopharmaceutical in urine (radioHPLC): 100%
[2]
  Intracellular (internalized) activity: 51.4%
  Maximum total uptake into AR42J: 58.6 ± 3.6 %/10^6 cells
  Membrane-bound fraction over time: ≤ 10%
[6]; after the EOS
  Time stable after EOS: at least 6 h
[6]; final formulation (10% EtOH), after 6 h of incubation
  In vitro stability (radiochemical purity by radioHPLC): > 95%
In vivo [3]
  tissue uptake at 1 h: 13.2 ± 1.86 %ID/g
In vivo [3]; tumor and kidney
  tissue to tissue ratio at 1 h: 4.25 ± 1.09
  tissue to tissue ratio at 4 h: 17.3 ± 4.99
In vivo [3]; tumor and liver
  tissue to tissue ratio at 1 h: 14.1 ± 4.29
  tissue to tissue ratio at 4 h: 21 ± 1.28
In vivo [3]; tumor and muscle
  tissue to tissue ratio at 1 h: 255 ± 64.7
  tissue to tissue ratio at 4 h: 495 ± 109
AR42J tumor-bearing mice
  Tumor uptake (tumor activity): 12.81 ± 0.57 % ID/g

## [Cl][Cu][Cl] [[^61Cu]CuCl2, copper chloride, reference compound]
Healthy control mice; healthy mice, 1 h after injection
  Biodistribution profile in PET/MR images: accumulation profile of free copper in the liver and the intestine
